Here are results for 17 variants from the supplement of paper PMC7125110.

The labels stand for the following.
B1: glmS ribozyme (parent)
chain: AUAAAAGCGCCAGAACUACAGAAAUGUAGUUGACGAGGAGGAGGUUUAUCGAAUUUUCGGCGGAUGCCUCCAAA

This sample holds only a part of the variants without activity.

What all share (details): with glucosamine-6-phosphate
In series [1] the parent is B1. The series can be described thus: self-cleavage kobs at 160 uM GlcN6P; higher = faster cleavage; RNA array. In short, it runs like this: (§1)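 Tiles bearing barcoded ribozyme variants, transcribed in situ by E. coli RNA polymerase on sequenced MiSeq chips, were imaged over ~14 h at 37 °C using a hybridised Cy3 probe. Glucosamine-6-phosphate was supplied at 40 μM to 10 mM in HEPES/KCl/Mg(OAc)2 buffer. kobs came from one- or two-exponential decay fits to normalised per-tile medians, and weighted Michaelis–Menten fits then provided kcat and KM.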

Variants of B1 are the subject of series [2]. The experiment in a line: self-cleavage kobs at 2500 uM GlcN6P; higher = faster cleavage; RNA array. In short, it runs like this: as §1
Series [3] covers variants of B1. The experiment in a line: self-cleavage kobs at 640 uM GlcN6P; higher = faster cleavage; RNA array. The gist of the method:
as §1

Series [4] covers variants of B1. The series can be described thus: self-cleavage kobs at 10000 uM GlcN6P; higher = faster cleavage; RNA array. In short, it runs like this: as §1

For AUAAAAUCGCCCGAACUACAGAAAUGUAGUUGACGAGGAGGAGGUUUAUCGAAAUUUAGGCGGAUGCCUGCAAA [G7U A12C U54A C58A C70G], in series [1], the “self-cleavage kobs at 160 uM GlcN6P” value is below 1e-05 s⁻¹. The “self-cleavage kobs at 2500 uM GlcN6P” value in series [2] is below 1e-05 s⁻¹.
As to AUAAAAGCGCCAGAACUACAGAAAUGUAGUUGACCGGGAGGAGGUUUACCGACUUUUCGGCGGAUGCUUCCAAA [G35C A36G U49C A53C C68U], the “self-cleavage kobs at 160 uM GlcN6P” value in series [1] is below 1e-05 s⁻¹. In series [3], the “self-cleavage kobs at 640 uM GlcN6P” value is below 1e-05 s⁻¹. Also, the “self-cleavage kobs at 2500 uM GlcN6P” value in series [2] is below 1e-05 s⁻¹.
Turning to AUAAAAGCUCCAGUACUACAGAAAUGUAGUUGACGAGGAGGAGGUUAAUCGAAUUUUCGGCGGAUGCCUCCAAA [G9U A14U U47A], in series [1], the “self-cleavage kobs at 160 uM GlcN6P” value was below 1e-05 s⁻¹. Also, in series [3], the “self-cleavage kobs at 640 uM GlcN6P” value is below 1e-05 s⁻¹. The “self-cleavage kobs at 2500 uM GlcN6P” value in series [2] was below 1e-05 s⁻¹.
On to AUAAAGGCUCCAGAACUACAGAAAUGUAGUUCACGAGGAUGAGGAUGAUCGAAUUUUCGGCGGAUGCCCCCAAA [A6G G9U G32C G40U U45A U47G U69C], for which the “self-cleavage kobs at 160 uM GlcN6P” value in series [1] is below 1e-05 s⁻¹.
As to AUAAAAGCGCCAGAACUACAGAAAUGUAGUUGCCGAGGAUGAGCAUUAUCGAAUUUUCGGCUGAUGCCUCCAAA [A33C G40U G44C U45A G62U], the “self-cleavage kobs at 160 uM GlcN6P” value in series [1] is below 1e-05 s⁻¹.
AUAAAAGCGCCAGAACUACAGAAAUGUAGUUGACAAGGAGGAGGUUUAUCGAAUUUUCGGCGGAUGCUUGCAAA [G35A C68U C70G]: the “self-cleavage kobs at 160 uM GlcN6P” value in series [1] was below 1e-05 s⁻¹. The “self-cleavage kobs at 640 uM GlcN6P” value in series [3] is below 1e-05 s⁻¹. In addition, the “self-cleavage kobs at 2500 uM GlcN6P” value in series [2] was below 1e-05 s⁻¹.
For AUAAAAGCGCCAGAACUACAGAAAUGUAGGUGACGAGGAUGCGGUUUAUCGAAUUUUAGGCGGAUGCCUCCAAA [U30G G40U A42C C58A], the “self-cleavage kobs at 160 uM GlcN6P” value in series [1] is below 1e-05 s⁻¹. The “self-cleavage kobs at 640 uM GlcN6P” value in series [3] was below 1e-05 s⁻¹. Also, the “self-cleavage kobs at 2500 uM GlcN6P” value in series [2] is below 1e-05 s⁻¹.
In the case of AUAAAAGUGCCAGAACUACAGAAAUGUAGUUGACGAGGAUGAGGUUUUUCGAAUUUUCGGCGGAAGCCUCCAAA [C8U G40U A48U U65A], the “self-cleavage kobs at 160 uM GlcN6P” value in series [1] was below 1e-05 s⁻¹. In series [3], the “self-cleavage kobs at 640 uM GlcN6P” value is below 1e-05 s⁻¹. For the same variant, the “self-cleavage kobs at 2500 uM GlcN6P” value in series [2] is below 1e-05 s⁻¹.
For the variant AUAAAAGCGCCAGAACUACAGAAAUGUAGUUGACGAGGAGGAGGUUUUUCGAAUUUUCGUCGGAUGCUUCCAAA [A48U G60U C68U], the “self-cleavage kobs at 160 uM GlcN6P” value in series [1] is below 1e-05 s⁻¹. Further, the “self-cleavage kobs at 2500 uM GlcN6P” value in series [2] is below 1e-05 s⁻¹.
As to AUAAAAGCUCCCGAACUACAGAAAUGUAGUUGACGAGGAGGAGGUUUAUCGAAUUUUCGGCGGAUGUCUCCAAA [G9U A12C C67U], in series [1], the “self-cleavage kobs at 160 uM GlcN6P” value is below 1e-05 s⁻¹. The “self-cleavage kobs at 640 uM GlcN6P” value in series [3] was below 1e-05 s⁻¹. Moreover, the “self-cleavage kobs at 2500 uM GlcN6P” value in series [2] was below 1e-05 s⁻¹. In series [4], the “self-cleavage kobs at 10000 uM GlcN6P” value is below 1e-05 s⁻¹.
Take AUAAAAGCGCCAGAACUACAGAAAUGUAGUUGAAGAGGAGAAGGUUUAUCGAAUUUUCGGCGGAUGCCUCUAAA [C34A G41A C71U]: the “self-cleavage kobs at 160 uM GlcN6P” value in series [1] is below 1e-05 s⁻¹.
With AUAAAAGCGCCAGAACUACAGAAAUGUAGUUGACGAGGAGGAGCUUUAUCGAAUUUUCAGCGGAUGCCUCCAAA [G44C G59A], the “self-cleavage kobs at 160 uM GlcN6P” value in series [1] is below 1e-05 s⁻¹. Moreover, the “self-cleavage kobs at 640 uM GlcN6P” value in series [3] is below 1e-05 s⁻¹. For the same variant, the “self-cleavage kobs at 2500 uM GlcN6P” value in series [2] is below 1e-05 s⁻¹. The “self-cleavage kobs at 10000 uM GlcN6P” value in series [4] is below 1e-05 s⁻¹.
As to AUAAAAGCGCCAGAACUACAGAAAUGUAGUUGAUGAGGAGGAGGUUUAGCGAAUUUUCGGCGGAUGCCUCCAAA [C34U U49G], in series [1], the “self-cleavage kobs at 160 uM GlcN6P” value is below 1e-05 s⁻¹. In series [2], the “self-cleavage kobs at 2500 uM GlcN6P” value is below 1e-05 s⁻¹. Also, the “self-cleavage kobs at 10000 uM GlcN6P” value in series [4] is below 1e-05 s⁻¹.
With AUAAAAGCGCCAGAGGUACAGAAAUGUAGUUGCCGAGGAGGAGGUUUAGCGAUUUUUCGGCGGAUGCCUCCAAA [A15G C16G A33C U49G A53U], the “self-cleavage kobs at 160 uM GlcN6P” value in series [1] was below 1e-05 s⁻¹. The “self-cleavage kobs at 640 uM GlcN6P” value in series [3] was below 1e-05 s⁻¹.
For the variant AUAAAAGCGCCAGAACUACAGAAAUGUAGUUGAAGAGGAGGAGGUUCCUCGAAUUUUCGGCGGAUGCCUCCAAA [C34A U47C A48C], in series [1], the “self-cleavage kobs at 160 uM GlcN6P” value was below 1e-05 s⁻¹.
On to AUAAAAGCGCCAUAACUACAGAAAUGUAGUUGUCGAGGAGGAGGUUUAUCGAAUUUCCGGCGGAUGCCUCCAAA [G13U A33U U57C], for which the “self-cleavage kobs at 160 uM GlcN6P” value in series [1] is below 1e-05 s⁻¹. In series [3], the “self-cleavage kobs at 640 uM GlcN6P” value is below 1e-05 s⁻¹.
In the case of AUAAAAGCGCCAGAACUACAGAAAUGUAGUUGACGAGGAGGAGGUUUAUCGAAUUAUCGUCGGAUGCCUCCAAA [U56A G60U], the “self-cleavage kobs at 160 uM GlcN6P” value in series [1] was below 1e-05 s⁻¹.
